Target: bact sCRFR2α (mouse soluble CRF receptor type 2α, amino acids 20-143, purified from E. coli) (mouse)
Test: radioreceptor assay, displacement of [125I-DTyr0]-astressin from purified sCRFR2α

Question: With Astressin (peptide) as the substance, how does the Ki read?
Answer: 0.01 µM
